# In ChEMBL document CHEMBL1212772:
# B1: Carbapenem-hydrolyzing beta-lactamase SME-3 (Serratia marcescens), Q6PRG8 (protein)
# chain: MSNKVNFKTASFLFSVCLALSAFNAHANKSDAAAKQIKKLEEDFDGRIGVFAIDTGSGNTFGYRSDERFPLCSSFKGFLAAAVLERVQQKKLDINQKVKYESRDLEYYSPITTKYKGSGMTLGDMASAALQYSDNGATNIIMERFLGGPEGMTKFMRSIGDNEFRLDRWELELNTAIPGDKRDTSTPKAVANSLNKLALGNVLNAKVKAIYQNWLKGNTTGDARIRASVPADWVVGDKTGSCGAYGTANDYAVIWPKNRAPLIVSIYTTRKSKDDKHSDKTIAEASRIAIQAID
# B2: Carbapenem-hydrolyzing beta-lactamase KPC (Klebsiella pneumoniae), Q9F663 (protein)
# chain: MSLYRRLVLLSCLSWPLAGFSATALTNLVAEPFAKLEQDFGGSIGVYAMDTGSGATVSYRAEERFPLCSSFKGFLAAAVLARSQQQAGLLDTPIRYGKNALVPWSPISEKYLTTGMTVAELSAAAVQYSDNAAANLLLKELGGPAGLTAFMRSIGDTTFRLDRWELELNSAIPGDARDTSSPRAVTESLQKLTLGSALAAPQRQQFVDWLKGNTTGNHRIRAAVPADWAVGDKTGTCGVYGTANDYAVVWPTGRAPIVLAVYTRAPNKDDKHSEAVIAAAARLALEGLGVNGQ
# B3: Beta-lactamase (Escherichia coli), Q53TY8 (protein)
# chain: MMKKSLCCALLLTASFSTFAAAKTEQQIADIVNRTITPLMQEQAIPGMAVAVIYQGKPYYFTWGKADIANNHPVTQQTLFELGSVSKTFNGVLGGDAIARGEIKLSDPVTKYWPELTGKQWQGIRLLHLATYTAGGLPLQIPDDVRDKAALLHFYQNWQPQWTPGAKRLYANSSIGLFGALAVKPSGMSYEEAMTRRVLQPLKLAHTWITVPQNEQKDYAWGYREGKPVHVSPGQLDAEAYGVKSSVIDMARWVQANMDASHVQEKTLQQGIALAQSRYWRIGDMYQGLGWEMLNWPLKADSIINGSDSKVALAALPAVEVNPPAPAVKASWVHKTGSTGGFGSYVAFVPEKNLGIVMLANKSYPNPVRVEAAWRILEKLQ
# Experiments:
# [1] = substrate: C[C@@H](O)[C@H]1C(=O)N2C(C(=O)O)=C(SCCNC=N)C[C@H]12; test: (§1) Activity of Serratia marcescens SME-3
# [2] = substrate: C[C@@H](O)[C@H]1C(=O)N2C(C(=O)O)=C(S[C@@H]3CN[C@H](CNS(N)(=O)=O)C3)[C@H](C)[C@H]12; test: as §1
# [3] = substrate: C[C@@H](O)[C@H]1C(=O)N2C(C(=O)O)=C(S[C@@H]3CN[C@H](C(=O)N(C)C)C3)[C@H](C)[C@H]12; test: as §1
# [4] = substrate: C[C@@H](O)[C@H]1C(=O)N2C(C(=O)O)=C(SCCNC=N)C[C@H]12; test: (§2) Kcat/Km ratio of Serratia marcescens SME-3
# [5] = substrate: C[C@@H](O)[C@H]1C(=O)N2C(C(=O)O)=C(S[C@@H]3CN[C@H](CNS(N)(=O)=O)C3)[C@H](C)[C@H]12; test: as §2
# [6] = substrate: C[C@@H](O)[C@H]1C(=O)N2C(C(=O)O)=C(S[C@@H]3CN[C@H](C(=O)N(C)C)C3)[C@H](C)[C@H]12; test: as §2
# [7] = substrate: O=C(Cc1cccs1)N[C@@H]1C(=O)N2C(C(=O)[O-])=C(C[n+]3ccccc3)CS[C@H]12; test: (§3) Kcat/Km ratio of Klebsiella pneumoniae KPC-2
# [8] = substrate: C[C@@H](O)[C@H]1C(=O)N2C(C(=O)O)=C(SCCNC=N)C[C@H]12; test: as §3
# [9] = substrate: C[C@@H](O)[C@H]1C(=O)N2C(C(=O)O)=C(S[C@@H]3CN[C@H](CNS(N)(=O)=O)C3)[C@H](C)[C@H]12; test: as §3
# [10] = substrate: C[C@@H](O)[C@H]1C(=O)N2C(C(=O)O)=C(S[C@@H]3CN[C@H](C(=O)N(C)C)C3)[C@H](C)[C@H]12; test: as §3
# [11] = substrate: CC1(C)S[C@@H]2[C@H](NC(=O)Cc3ccccc3)C(=O)N2[C@H]1C(=O)O; test: as §3
# [12] = substrate: CC(C)(O/N=C(\C(=O)N[C@@H]1C(=O)N2C(C(=O)[O-])=C(C[n+]3ccccc3)CS[C@H]12)c1csc(N)n1)C(=O)O; test: as §3
# [13] = substrate: O=C(Cc1cccs1)N[C@@H]1C(=O)N2C(C(=O)[O-])=C(C[n+]3ccccc3)CS[C@H]12; test: (§4) Activity of Klebsiella pneumoniae KPC-2
# [14] = substrate: C[C@@H](O)[C@H]1C(=O)N2C(C(=O)O)=C(SCCNC=N)C[C@H]12; test: as §4
# [15] = substrate: C[C@@H](O)[C@H]1C(=O)N2C(C(=O)O)=C(S[C@@H]3CN[C@H](CNS(N)(=O)=O)C3)[C@H](C)[C@H]12; test: as §4
# [16] = substrate: C[C@@H](O)[C@H]1C(=O)N2C(C(=O)O)=C(S[C@@H]3CN[C@H](C(=O)N(C)C)C3)[C@H](C)[C@H]12; test: as §4
# [17] = substrate: CC1(C)S[C@@H]2[C@H](NC(=O)Cc3ccccc3)C(=O)N2[C@H]1C(=O)O; test: as §4
# [18] = substrate: CC(C)(O/N=C(\C(=O)N[C@@H]1C(=O)N2C(C(=O)[O-])=C(C[n+]3ccccc3)CS[C@H]12)c1csc(N)n1)C(=O)O; test: as §4
# [19] = substrate: O=C(Cc1cccs1)N[C@@H]1C(=O)N2C(C(=O)O)=C(/C=C/c3ccc([N+](=O)[O-])cc3[N+](=O)[O-])CS[C@H]12; test: (§5) Kcat/Km ratio of Escherichia coli CMY-2
# [20] = substrate: O=C(Cc1cccs1)N[C@@H]1C(=O)N2C(C(=O)[O-])=C(C[n+]3ccccc3)CS[C@H]12; test: as §5
# [21] = substrate: C[C@@H](O)[C@H]1C(=O)N2C(C(=O)O)=C(SCCNC=N)C[C@H]12; test: as §5
# [22] = substrate: C[C@@H](O)[C@H]1C(=O)N2C(C(=O)O)=C(S[C@@H]3CN[C@H](CNS(N)(=O)=O)C3)[C@H](C)[C@H]12; test: as §5
# [23] = substrate: C[C@@H](O)[C@H]1C(=O)N2C(C(=O)O)=C(S[C@@H]3CN[C@H](C(=O)N(C)C)C3)[C@H](C)[C@H]12; test: as §5
# [24] = substrate: CC1(C)S[C@@H]2[C@H](NC(=O)Cc3ccccc3)C(=O)N2[C@H]1C(=O)O; test: as §5
# [25] = substrate: CC(C)(O/N=C(\C(=O)N[C@@H]1C(=O)N2C(C(=O)[O-])=C(C[n+]3ccccc3)CS[C@H]12)c1csc(N)n1)C(=O)O; test: as §5
# [26] = compound: C[C@@H](O)[C@H]1C(=O)N2C(C(=O)O)=C(SCCNC=N)C[C@H]12; test: (§6) Inhibition of Escherichia coli CMY-2 assessed as inhibition of nitrocefin hydrolysis
# [27] = compound: C[C@@H](O)[C@H]1C(=O)N2C(C(=O)O)=C(S[C@@H]3CN[C@H](C(=O)N(C)C)C3)[C@H](C)[C@H]12; test: as §6
# [28] = substrate: O=C(Cc1cccs1)N[C@@H]1C(=O)N2C(C(=O)O)=C(/C=C/c3ccc([N+](=O)[O-])cc3[N+](=O)[O-])CS[C@H]12; test: (§7) Activity of Escherichia coli CMY-2
# [29] = substrate: O=C(Cc1cccs1)N[C@@H]1C(=O)N2C(C(=O)[O-])=C(C[n+]3ccccc3)CS[C@H]12; test: as §7
# [30] = substrate: C[C@@H](O)[C@H]1C(=O)N2C(C(=O)O)=C(SCCNC=N)C[C@H]12; test: as §7
# [31] = substrate: C[C@@H](O)[C@H]1C(=O)N2C(C(=O)O)=C(S[C@@H]3CN[C@H](CNS(N)(=O)=O)C3)[C@H](C)[C@H]12; test: as §7
# [32] = substrate: C[C@@H](O)[C@H]1C(=O)N2C(C(=O)O)=C(S[C@@H]3CN[C@H](C(=O)N(C)C)C3)[C@H](C)[C@H]12; test: as §7
# [33] = substrate: CC1(C)S[C@@H]2[C@H](NC(=O)Cc3ccccc3)C(=O)N2[C@H]1C(=O)O; test: as §7
# [34] = substrate: CC(C)(O/N=C(\C(=O)N[C@@H]1C(=O)N2C(C(=O)[O-])=C(C[n+]3ccccc3)CS[C@H]12)c1csc(N)n1)C(=O)O; test: as §7
protein,measurement,setting,value
B1,Km,[1],150 µM
same,kcat,[1],370 s⁻¹
same,Km,[2],8.2 µM
same,kcat,[2],2.5 s⁻¹
same,Km,[3],5.8 µM
same,kcat,[3],3.2 s⁻¹
same,kcat/Km,[4],2.5e+06 M⁻¹ s⁻¹
same,kcat/Km,[5],300000 M⁻¹ s⁻¹
same,kcat/Km,[6],550000 M⁻¹ s⁻¹
B2,kcat/Km,[7],760000 M⁻¹ s⁻¹
same,kcat/Km,[8],340000 M⁻¹ s⁻¹
same,kcat/Km,[9],340000 M⁻¹ s⁻¹
same,kcat/Km,[10],280000 M⁻¹ s⁻¹
same,kcat/Km,[11],2e+06 M⁻¹ s⁻¹
same,kcat/Km,[12],1700 M⁻¹ s⁻¹
same,Km,[13],510 µM
same,kcat,[13],390 s⁻¹
same,Km,[14],90 µM
same,kcat,[14],31 s⁻¹
same,Km,[15],1.6 µM
same,kcat,[15],0.55 s⁻¹
same,Km,[16],13 µM
same,kcat,[16],3.6 s⁻¹
same,Km,[17],30 µM
same,kcat,[17],60 s⁻¹
same,Km,[18],230 µM
same,kcat,[18],0.38 s⁻¹
B3,kcat/Km,[19],4.3e+07 M⁻¹ s⁻¹
same,kcat/Km,[20],2.4e+06 M⁻¹ s⁻¹
same,kcat/Km,[21],100000 M⁻¹ s⁻¹
same,kcat/Km,[22],16000 M⁻¹ s⁻¹
same,kcat/Km,[23],1400 M⁻¹ s⁻¹
same,kcat/Km,[24],1e+07 M⁻¹ s⁻¹
same,kcat/Km,[25],780 M⁻¹ s⁻¹
same,Km,[26],0.31 µM
same,Km,[27],0.06 µM
same,Km,[28],40 µM
same,kcat,[28],1700 s⁻¹
same,Km,[29],290 µM
same,kcat,[29],710 s⁻¹
same,kcat,[30],< 0.031 s⁻¹
same,kcat,[31],7.2e-05 s⁻¹
same,kcat,[32],8.1e-05 s⁻¹
same,Km,[33],2.2 µM
same,kcat,[33],22 s⁻¹
same,Km,[34],4.5 µM
same,kcat,[34],0.0035 s⁻¹
